Values quoted from earlier work in paper PMC3899951.

Assays:
[1] = molecular target: histone H4 K5,8,12,16ac peptide (Homo sapiens) (UniProt P62805)
[2] = molecular target: histone H4 singly acetylated peptide (Homo sapiens) (UniProt P62805)

TAFII250 tandem bromodomain (from UniProt P21675)
Kd [1]: 5 µM | Kd [2]: 39 µM
